Reference: US20140044730A1 (Regeneron, published 2014)
Where a chain is given by its changes, count along the chain named.

B1: VH-T28H (antibody, V domains shown)
VH: EMQLVESGGGLVQPGGSLRLSCAASGFHFSSHWMKWVRQAPGKGLEWVANINQDGSEKYYVDSVKGRFTISRDNAKNSLFLQMNSLRAEDTAVYYCARDIVLMVYDMDYYYYGMDVWGQGTTVTVSS
VL: not shown
notes: His variant of 300N
B2: VK-Q95H (antibody, V domains shown)
VH: B1 VH with H28T
VL: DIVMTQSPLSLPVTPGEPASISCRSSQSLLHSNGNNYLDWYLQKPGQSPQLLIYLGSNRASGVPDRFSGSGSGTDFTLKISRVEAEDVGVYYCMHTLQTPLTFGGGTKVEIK
notes: His variant of 300N
B3: VK-T99H (antibody, V domains shown)
VH: B1 VH with H28T
VL: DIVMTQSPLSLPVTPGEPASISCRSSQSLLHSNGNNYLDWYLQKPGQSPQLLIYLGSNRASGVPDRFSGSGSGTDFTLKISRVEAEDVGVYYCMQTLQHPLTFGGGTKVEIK
notes: His variant of 300N
B4: VH-Y110H (antibody, V domains shown)
VH: B1 VH with H28T, Y110H
VL: not shown
notes: His variant of 300N
B5: VK-G34H (antibody, V domains shown)
VH: B1 VH with H28T
VL: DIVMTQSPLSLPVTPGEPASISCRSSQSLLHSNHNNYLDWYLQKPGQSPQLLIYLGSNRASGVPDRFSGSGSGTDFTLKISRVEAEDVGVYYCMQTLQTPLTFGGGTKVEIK
notes: His variant of 300N
B6: VH-Y105H (antibody, V domains shown)
VH: B1 VH with H28T, Y105H
VL: not shown
notes: His variant of 300N
B7: VH-Y111H (antibody, V domains shown)
VH: B1 VH with H28T, Y111H
VL: not shown
notes: His variant of 300N
B8: VK-G56H (antibody, V domains shown)
VH: B1 VH with H28T
VL: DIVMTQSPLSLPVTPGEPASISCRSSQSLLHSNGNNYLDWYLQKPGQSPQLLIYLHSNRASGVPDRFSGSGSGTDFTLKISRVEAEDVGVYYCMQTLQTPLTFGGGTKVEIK
notes: His variant of 300N
B9: VK-M94H (antibody, V domains shown)
VH: B1 VH with H28T
VL: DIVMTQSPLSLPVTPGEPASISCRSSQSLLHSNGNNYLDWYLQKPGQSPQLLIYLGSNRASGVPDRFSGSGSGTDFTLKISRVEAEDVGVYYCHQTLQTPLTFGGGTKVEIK
notes: His variant of 300N
B10: VK-S57H (antibody, V domains shown)
VH: B1 VH with H28T
VL: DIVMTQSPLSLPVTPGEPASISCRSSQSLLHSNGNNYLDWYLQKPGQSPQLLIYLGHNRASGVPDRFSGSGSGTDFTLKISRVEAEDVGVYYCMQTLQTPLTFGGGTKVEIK
notes: His variant of 300N
B11: VH-V116H (antibody, V domains shown)
VH: B1 VH with H28T, V116H
VL: not shown
notes: His variant of 300N
B12: VK-L55H (antibody, V domains shown)
VH: B1 VH with H28T
VL: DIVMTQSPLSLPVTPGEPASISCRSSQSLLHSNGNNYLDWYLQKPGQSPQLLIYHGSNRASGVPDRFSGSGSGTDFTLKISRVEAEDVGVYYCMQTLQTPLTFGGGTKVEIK
notes: His variant of 300N
B13: VK-Q98H (antibody, V domains shown)
VH: B1 VH with H28T
VL: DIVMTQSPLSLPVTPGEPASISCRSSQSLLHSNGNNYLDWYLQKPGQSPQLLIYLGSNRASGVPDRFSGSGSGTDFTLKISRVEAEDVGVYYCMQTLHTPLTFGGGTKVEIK
notes: His variant of 300N
B14: VK-Q27H (antibody, V domains shown)
VH: B1 VH with H28T
VL: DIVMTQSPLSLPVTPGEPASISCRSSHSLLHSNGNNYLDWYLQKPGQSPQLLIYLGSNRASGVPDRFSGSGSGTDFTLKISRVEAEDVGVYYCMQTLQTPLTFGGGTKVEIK
notes: His variant of 300N
B15: VK-L97H (antibody, V domains shown)
VH: B1 VH with H28T
VL: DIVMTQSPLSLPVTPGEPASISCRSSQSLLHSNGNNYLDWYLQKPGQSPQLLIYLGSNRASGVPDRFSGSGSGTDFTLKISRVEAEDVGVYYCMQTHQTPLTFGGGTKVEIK
notes: His variant of 300N
B16: VK-N35H (antibody, V domains shown)
VH: B1 VH with H28T
VL: not shown
notes: His variant of 300N
B17: VH-W33H (antibody, V domains shown)
VH: B1 VH with H28T, W33H
VL: not shown
notes: His variant of 300N
B18: VH-Y109H (antibody, V domains shown)
VH: B1 VH with H28T, Y109H
VL: not shown
notes: His variant of 300N
B19: VK-N33H (antibody, V domains shown)
VH: B1 VH with H28T
VL: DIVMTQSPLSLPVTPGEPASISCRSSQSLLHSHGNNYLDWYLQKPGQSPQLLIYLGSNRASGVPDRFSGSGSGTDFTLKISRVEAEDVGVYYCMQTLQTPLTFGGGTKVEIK
notes: His variant of 300N
B20: VK-L101H (antibody, V domains shown)
VH: B1 VH with H28T
VL: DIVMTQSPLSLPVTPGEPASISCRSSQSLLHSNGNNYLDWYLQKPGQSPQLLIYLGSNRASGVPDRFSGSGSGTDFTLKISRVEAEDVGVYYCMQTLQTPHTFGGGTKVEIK
notes: His variant of 300N
B21: VK-L29H (antibody, V domains shown)
VH: B1 VH with H28T
VL: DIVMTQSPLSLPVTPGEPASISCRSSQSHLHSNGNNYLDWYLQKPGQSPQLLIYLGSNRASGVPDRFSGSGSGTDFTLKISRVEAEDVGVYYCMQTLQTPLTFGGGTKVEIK
notes: His variant of 300N
B22: VK-P100H (antibody, V domains shown)
VH: B1 VH with H28T
VL: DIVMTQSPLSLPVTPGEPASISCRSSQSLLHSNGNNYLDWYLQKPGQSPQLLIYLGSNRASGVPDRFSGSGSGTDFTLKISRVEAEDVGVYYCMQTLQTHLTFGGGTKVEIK
notes: His variant of 300N
B23: VK-N36H (antibody, V domains shown)
VH: B1 VH with H28T
VL: not shown
notes: His variant of 300N
B24: VK-S28H (antibody, V domains shown)
VH: B1 VH with H28T
VL: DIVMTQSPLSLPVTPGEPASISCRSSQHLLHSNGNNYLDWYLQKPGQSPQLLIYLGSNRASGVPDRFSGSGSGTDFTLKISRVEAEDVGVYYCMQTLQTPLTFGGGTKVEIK
notes: His variant of 300N

Target: T1, human PCSK9 with a C-terminal myc-myc-hexahistidine tag (human, UniProt Q8NBP7 31-692, limits assumed)
T1 construct: also called hPCSK9-mmH; hPCSK9-mmh; not shown: C-terminal myc-myc-hexahistidine tag
Test: SPR 25C pH 5.75, mAb captured;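 further: biacore surface with anti-human Fc antibody capturing the antibodies, PCSK9 as analyte, one-to-one kinetic fit, KD as kd over ka, half-life derived from kd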

Row | Kd [nM] | t½ [min] | Binder
1 | 1.45 | 16 | B1
2 | 1.97 | 6 | B2
3 | 12 | 0.4 | B3
4 | 3.37 | 7 | B4
5 | 2370 | 0.3 | B5
6 | 643 | 0 | B6
7 | 7.01 | 6 | B7
8 | 1.83 | 9 | B8
9 | 11.3 | 7 | B9
10 | 1.74 | 12 | B10
11 | 6.11 | 11 | B11
12 | 2.68 | 19 | B12
13 | 0.805 | 20 | B13
14 | 2.85 | 4 | B14
15 | 12.8 | 8 | B15
16 | 2.09 | 14 | B16
17 | 21.5 | 0.1 | B17
18 | 247 | 1 | B18
19 | 369 | 0.3 | B19
20 | 3.3 | 8 | B20
21 | 40.2 | 1 | B21
22 | 12.8 | 0.4 | B22
23 | 1.54 | 10 | B23
24 | 7.63 | 6 | B24

Target: T1, human PCSK9 with a C-terminal …
Test: SPR 25C pH 7.2, mAb captured;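 further: biacore SPR, antibodies captured on anti-human Fc CM4 chip with PCSK9 flowed as analyte, rate constants from a one-to-one kinetic fit, KD and half-life derived from them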

Row | Kd [nM] | t½ [min] | Binder
25 | 2.96 | 20 | B1
26 | 1.33 | 27 | B2
27 | 9.63 | 5 | B3
28 | 194 | 1 | B4
29 | 18 | 1 | B5
30 | 292 | 1 | B6
31 | 19.4 | 3 | B7
32 | 1.11 | 36 | B8
33 | 3.53 | 29 | B9
34 | 0.948 | 48 | B10
35 | 2.62 | 43 | B11
36 | 0.906 | 66 | B12
37 | 0.914 | 49 | B13
38 | 5.01 | 9 | B14
39 | 6.61 | 45 | B15
40 | 1.06 | 48 | B16
41 | 15.4 | 4 | B17
42 | 242 | 0 | B18
43 | 9.69 | 2 | B19
44 | 1.8 | 33 | B20
45 | 12.9 | 7 | B21
46 | 8.9 | 4 | B22
47 | 0.952 | 42 | B23
48 | 138 | 0 | B24

Target: T1, human PCSK9 with a C-terminal …
Test: SPR 25C, mAb captured;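 further: biacore CM4 surface bearing anti-human Fc antibody capturing the mAbs, PCSK9 binding and release rates fitted with a one-to-one model, KD and half-life derived from those rates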
Method: A Biacore CM4 sensor chip was derivatized with a monoclonal mouse anti-human Fc antibody to capture human antibodies. The histidine substitution variant anti-PCSK9 antibodies were captured onto the anti-human Fc sensor surface from culture medium after transient expression in Chinese hamster ovary (CHO) cells. […] Kinetic association (kₐ) and dissociation (kd) rate constants were determined by processing and fitting the data to a 1:1 binding model using Scrubber 2.0 curve fitting software. Binding dissociation equilibrium constants (KD) and dissociative half-lives (t_{1/2}) were calculated from the kinetic rate constants as: KD (M)=kd/kₐ; and t_{1/2} (min)=(In2/(60*kd).

Row | KD ratio pH 5.75/pH 7.2 | t½ ratio pH 5.75/pH 7.2 | Binder
49 | 0.49 | 0.8 | B1
50 | 1.48 | 0.23 | B2
51 | 1.25 | 0.1 | B3
52 | 0.02 | 9.97 | B4
53 | 131 | 0.38 | B5
54 | 2.2 | 0.83 | B6
55 | 0.36 | 2.29 | B7
56 | 1.65 | 0.24 | B8
57 | 3.21 | 0.23 | B9
58 | 1.84 | 0.26 | B10
59 | 2.33 | 0.26 | B11
60 | 2.95 | 0.29 | B12
61 | 0.88 | 0.41 | B13
62 | 0.57 | 0.42 | B14
63 | 1.94 | 0.18 | B15
64 | 1.98 | 0.29 | B16
65 | 1.39 | 0.03 | B17
66 | 1.02 | 1.37 | B18
67 | 38.1 | 0.12 | B19
68 | 1.84 | 0.25 | B20
69 | 3.12 | 0.16 | B21
70 | 1.44 | 0.1 | B22
71 | 1.61 | 0.24 | B23
72 | 0.06 | 22.2 | B24
